Results published in US20160264649A1.

Legend:
Experiment in all cases: cell-based or functional assay
[1] = target: HIV-1 Env of pseudovirus isolate MGRM-G-001 (subtype G) (HIV-1)
[2] = target: HIV-1 Env of pseudovirus isolate MGRM-G-011 (subtype G) (HIV-1)
[3] = target: HIV-1 Env of pseudovirus isolate MGRM-G-004 (subtype G) (HIV-1)
[4] = target: envelope of aMLV pseudovirus (negative control)
[5] = target: HIV-1 Env of pseudovirus isolate MGRM-G-024 (subtype G) (HIV-1)
[6] = target: HIV-1 Env of pseudovirus isolate MGRM-G-006 (subtype G) (HIV-1)
[7] = target: HIV-1 Env of isolate 98CN009 (subtype CRF07_BC) (HIV-1)
[8] = target: HIV-1 Env of isolate 92UG001 (subtype D) (HIV-1)
[9] = target: HIV-1 Env of pseudovirus isolate MGRM-G-017 (subtype G) (HIV-1)
[10] = target: HIV-1 Env of pseudovirus isolate MGRM-G-025 (subtype G) (HIV-1)
[11] = target: HIV-1 Env of pseudovirus isolate MGRM-G-016 (subtype G) (HIV-1)
[12] = target: HIV-1 Env of pseudovirus isolate MGRM-G-014 (subtype G) (HIV-1)
[13] = target: HIV-1 Env of pseudovirus isolate MGRM-G-009 (subtype G) (HIV-1)
[14] = target: HIV-1 Env of isolate 92UG046 (subtype D) (HIV-1)
[15] = target: HIV-1 Env of pseudovirus isolate MGRM-G-028 (subtype G) (HIV-1)
[16] = target: HIV-1 Env of pseudovirus isolate MGRM-G-027 (subtype G) (HIV-1)
[17] = target: HIV-1 Env of pseudovirus isolate MGRM-G-013 (subtype G) (HIV-1)
[18] = target: HIV-1 Env of isolate 92UG005 (subtype D) (HIV-1)
[19] = target: HIV-1 Env of isolate 98CN006 (subtype CRF08_BC) (HIV-1)
[20] = target: HIV-1 Env of isolate 92UG024 (subtype D) (HIV-1)
[21] = target: HIV-1 Env of pseudovirus isolate MGRM-G-015 (subtype G) (HIV-1)
[22] = target: HIV-1 Env of pseudovirus isolate MGRM-G-019 (subtype G) (HIV-1)
[23] = target: HIV-1 Env of isolate MGRM-D-011 (subtype D) (HIV-1)
[24] = target: HIV-1 Env of isolate MGRM-F1-015 (subtype F) (HIV-1)
[25] = target: HIV-1 Env of isolate MGRM-D-001 (subtype D) (HIV-1)
[26] = target: HIV-1 Env of isolate MGRM-F1-012 (subtype F) (HIV-1)
[27] = target: HIV-1 Env of isolate MGRM-F1-018 (subtype F) (HIV-1)
[28] = target: HIV-1 Env of isolate MGRM-D-021 (subtype D) (HIV-1)
[29] = target: HIV-1 Env of isolate MGRM-D-005 (subtype D) (HIV-1)
[30] = target: HIV-1 Env of isolate MGRM-F1-013 (subtype F) (HIV-1)
[31] = target: HIV-1 Env of isolate MGRM-D-008 (subtype D) (HIV-1)
[32] = target: HIV-1 Env of isolate 92UG114 (subtype D) (HIV-1)
[33] = target: HIV-1 Env of isolate MGRM-F1-021 (subtype F) (HIV-1)
[34] = target: HIV-1 Env of isolate MGRM-F1-006 (subtype F) (HIV-1)
[35] = target: HIV-1 Env of isolate MGRM-D-019 (subtype D) (HIV-1)
[36] = target: HIV-1 Env of isolate MGRM-D-004 (subtype D) (HIV-1)
[37] = target: HIV-1 Env of isolate MGRM-D-022 (subtype D) (HIV-1)
[38] = target: HIV-1 Env of isolate MGRM-F1-014 (subtype F) (HIV-1)
[39] = target: HIV-1 Env of isolate MGRM-D-029 (subtype D) (HIV-1)
[40] = target: HIV-1 Env of isolate MGRM-D-002 (subtype D) (HIV-1)
[41] = target: HIV-1 Env of isolate MGRM-F1-010 (subtype F) (HIV-1)
[42] = target: HIV-1 Env of isolate MGRM-D-024 (subtype D) (HIV-1)
[43] = target: HIV-1 Env of isolate MGRM-F1-020 (subtype F) (HIV-1)
[44] = target: HIV-1 Env of isolate MGRM-D-013 (subtype D) (HIV-1)
[45] = target: HIV-1 Env of isolate MGRM-D-018 (subtype D) (HIV-1)
[46] = target: HIV-1 Env of isolate MGRM-D-012 (subtype D) (HIV-1)
[47] = target: HIV-1 Env of isolate MGRM-D-014 (subtype D) (HIV-1)
[48] = target: HIV-1 Env of isolate MGRM-F1-022 (subtype F) (HIV-1)
[49] = target: HIV-1 Env of isolate MGRM-F1-004 (subtype F) (HIV-1)
[50] = target: HIV-1 Env of isolate MGRM-D-026 (subtype D) (HIV-1)
[51] = target: HIV-1 Env of isolate MGRM-D-020 (subtype D) (HIV-1)
[52] = target: HIV-1 Env of isolate MGRM-F1-023 (subtype F) (HIV-1)
[53] = target: HIV-1 Env of isolate MGRM-D-028 (subtype D) (HIV-1)
[54] = target: HIV-1 Env of isolate MGRM-F1-017 (subtype F) (HIV-1)
[55] = target: HIV-1 Env of isolate MGRM-D-003 (subtype D) (HIV-1)
[56] = target: HIV-1 Env of isolate MGRM-F1-008 (subtype F) (HIV-1)
[57] = target: HIV-1 Env of isolate MGRM-D-016 (subtype D) (HIV-1)
[58] = target: HIV-1 Env of isolate MGRM-F1-016 (subtype F) (HIV-1)

PGT-142 (antibody), sequence (VH): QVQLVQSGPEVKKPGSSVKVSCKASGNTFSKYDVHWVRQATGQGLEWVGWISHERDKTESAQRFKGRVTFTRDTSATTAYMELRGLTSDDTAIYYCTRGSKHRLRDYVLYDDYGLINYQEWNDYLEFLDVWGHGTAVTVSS
PGT-142 (antibody), sequence (VL): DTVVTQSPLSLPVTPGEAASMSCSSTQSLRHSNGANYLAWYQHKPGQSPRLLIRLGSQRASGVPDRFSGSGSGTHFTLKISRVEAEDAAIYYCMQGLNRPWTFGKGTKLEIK
PGT-144 (antibody), sequence (VH): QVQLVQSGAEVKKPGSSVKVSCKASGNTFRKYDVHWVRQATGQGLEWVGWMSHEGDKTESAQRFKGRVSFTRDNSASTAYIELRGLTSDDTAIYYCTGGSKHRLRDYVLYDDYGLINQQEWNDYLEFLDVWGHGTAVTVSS
PGT-144 (antibody), sequence (VL): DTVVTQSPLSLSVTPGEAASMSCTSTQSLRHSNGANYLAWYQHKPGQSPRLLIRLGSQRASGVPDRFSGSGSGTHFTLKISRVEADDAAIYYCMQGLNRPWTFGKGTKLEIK
PGT-141 (antibody), sequence (VH): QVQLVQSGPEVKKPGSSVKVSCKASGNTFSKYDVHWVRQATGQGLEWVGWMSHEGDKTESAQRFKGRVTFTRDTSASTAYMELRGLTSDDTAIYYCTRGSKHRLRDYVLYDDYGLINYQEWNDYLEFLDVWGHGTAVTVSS
PGT-143 (antibody), sequence (VH): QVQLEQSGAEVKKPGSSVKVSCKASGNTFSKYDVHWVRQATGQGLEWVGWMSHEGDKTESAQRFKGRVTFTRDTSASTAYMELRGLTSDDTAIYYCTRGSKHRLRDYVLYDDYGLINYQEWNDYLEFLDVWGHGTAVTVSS
PGT-143 (antibody), sequence (VL): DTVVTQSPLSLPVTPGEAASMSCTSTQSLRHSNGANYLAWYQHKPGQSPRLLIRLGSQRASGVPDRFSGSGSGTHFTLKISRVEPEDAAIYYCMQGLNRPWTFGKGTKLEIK
PGT-145 (antibody), sequence (VH): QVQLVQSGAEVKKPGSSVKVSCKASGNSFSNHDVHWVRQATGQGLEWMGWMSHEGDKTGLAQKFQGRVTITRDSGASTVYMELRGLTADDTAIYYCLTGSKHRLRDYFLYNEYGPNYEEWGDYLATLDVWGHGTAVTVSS
PGT-145 (antibody), sequence (VL): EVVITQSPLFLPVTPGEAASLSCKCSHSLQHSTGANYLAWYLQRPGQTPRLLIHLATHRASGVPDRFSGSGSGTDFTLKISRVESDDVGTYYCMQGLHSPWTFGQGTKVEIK

PGT-142 (antibody)
IC50 [1]: 0.362 µg/mL
IC50 [2]: 0.046 µg/mL
IC50 [3]: > 50 µg/mL
IC50 [4]: > 50 µg/mL
IC50 [5]: 0.054 µg/mL
IC50 [6]: 0.019 µg/mL
IC50 (neutralization) [7]: 4 µg/mL
IC50 (neutralization) [8]: > 50 µg/mL
IC50 [9]: 0.125 µg/mL
IC50 [10]: > 50 µg/mL
IC50 [11]: 8.17 µg/mL
IC50 [12]: 0.076 µg/mL
IC50 [13]: 2.81 µg/mL
IC50 (neutralization) [14]: > 50 µg/mL
IC50 [15]: 30.3 µg/mL
IC50 [16]: > 50 µg/mL
IC50 [17]: > 50 µg/mL
IC50 (neutralization) [18]: > 50 µg/mL
IC50 (neutralization) [19]: > 50 µg/mL
IC50 (neutralization) [20]: > 50 µg/mL
IC50 [21]: > 50 µg/mL
IC50 [22]: 5.95 µg/mL

PGT-143 (antibody)
IC50 [1]: 0.423 µg/mL
IC50 [2]: 0.074 µg/mL
IC50 [3]: > 50 µg/mL
IC50 [4]: > 50 µg/mL
IC50 [5]: 0.048 µg/mL
IC50 [6]: 0.031 µg/mL
IC50 (neutralization) [7]: 10.2 µg/mL
IC50 (neutralization) [8]: > 50 µg/mL
IC50 [9]: 0.107 µg/mL
IC50 [10]: > 50 µg/mL
IC50 [11]: 7.6 µg/mL
IC50 [12]: 0.107 µg/mL
IC50 [13]: 2.97 µg/mL
IC50 (neutralization) [14]: > 50 µg/mL
IC50 [15]: 43 µg/mL
IC50 [16]: > 50 µg/mL
IC50 [17]: > 50 µg/mL
IC50 (neutralization) [18]: > 50 µg/mL
IC50 (neutralization) [19]: > 50 µg/mL
IC50 (neutralization) [20]: > 50 µg/mL
IC50 [21]: > 50 µg/mL
IC50 [22]: 4.77 µg/mL

PGT-141 (antibody)
IC50 [1]: 0.392 µg/mL
IC50 [2]: 0.086 µg/mL
IC50 [3]: > 50 µg/mL
IC50 [4]: > 50 µg/mL
IC50 [5]: 0.051 µg/mL
IC50 [6]: 0.043 µg/mL
IC50 (neutralization) [7]: 1.28 µg/mL
IC50 (neutralization) [8]: > 50 µg/mL
IC50 [9]: 0.164 µg/mL
IC50 [10]: > 50 µg/mL
IC50 [11]: 4.69 µg/mL
IC50 [12]: 0.222 µg/mL
IC50 [13]: 1.89 µg/mL
IC50 (neutralization) [14]: > 50 µg/mL
IC50 [15]: 24.9 µg/mL
IC50 [16]: > 50 µg/mL
IC50 [17]: > 50 µg/mL
IC50 (neutralization) [18]: > 50 µg/mL
IC50 (neutralization) [19]: > 50 µg/mL
IC50 (neutralization) [20]: > 50 µg/mL
IC50 [21]: > 50 µg/mL
IC50 [22]: 20.3 µg/mL

PGT-122 (antibody)
IC50 [1]: 0.005 µg/mL
IC50 (neutralization) [23]: 0.019 µg/mL
IC50 (neutralization) [24]: 31.4 µg/mL
IC50 (neutralization) [25]: 1.13 µg/mL
IC50 (neutralization) [26]: > 50 µg/mL
IC50 [2]: 31.3 µg/mL
IC50 (neutralization) [27]: 0.563 µg/mL
IC50 (neutralization) [28]: 11.7 µg/mL
IC50 (neutralization) [29]: > 50 µg/mL
IC50 [3]: 2.15 µg/mL
IC50 (neutralization) [30]: 0.152 µg/mL
IC50 [4]: > 50 µg/mL
IC50 (neutralization) [31]: > 50 µg/mL
IC50 [5]: 0.033 µg/mL
IC50 (neutralization) [32]: 0.011 µg/mL
IC50 [6]: > 50 µg/mL
IC50 (neutralization) [33]: 2.3 µg/mL
IC50 (neutralization) [34]: 3.27 µg/mL
IC50 (neutralization) [7]: 0.013 µg/mL
IC50 (neutralization) [35]: > 50 µg/mL
IC50 (neutralization) [36]: > 50 µg/mL
IC50 (neutralization) [8]: > 50 µg/mL
IC50 [9]: 0.032 µg/mL
IC50 (neutralization) [37]: > 50 µg/mL
IC50 (neutralization) [38]: 0.195 µg/mL
IC50 (neutralization) [39]: > 50 µg/mL
IC50 [10]: 0.079 µg/mL
IC50 [11]: > 50 µg/mL
IC50 [12]: 0.008 µg/mL
IC50 (neutralization) [40]: 0.005 µg/mL
IC50 (neutralization) [41]: 0.024 µg/mL
IC50 [13]: 0.514 µg/mL
IC50 (neutralization) [42]: 0.185 µg/mL
IC50 (neutralization) [14]: > 50 µg/mL
IC50 [15]: 0.01 µg/mL
IC50 [16]: 0.606 µg/mL
IC50 (neutralization) [43]: 0.321 µg/mL
IC50 (neutralization) [44]: > 50 µg/mL
IC50 (neutralization) [45]: 0.007 µg/mL
IC50 (neutralization) [46]: > 50 µg/mL
IC50 [17]: 3.45 µg/mL
IC50 (neutralization) [47]: 0.012 µg/mL
IC50 (neutralization) [18]: > 50 µg/mL
IC50 (neutralization) [48]: 0.277 µg/mL
IC50 (neutralization) [49]: 1.29 µg/mL
IC50 (neutralization) [19]: 0.021 µg/mL
IC50 (neutralization) [20]: > 50 µg/mL
IC50 (neutralization) [50]: > 50 µg/mL
IC50 [21]: > 50 µg/mL
IC50 (neutralization) [51]: 0.007 µg/mL
IC50 (neutralization) [52]: 0.154 µg/mL
IC50 (neutralization) [53]: 3.34 µg/mL
IC50 (neutralization) [54]: > 50 µg/mL
IC50 (neutralization) [55]: > 50 µg/mL
IC50 (neutralization) [56]: > 50 µg/mL
IC50 (neutralization) [57]: > 50 µg/mL
IC50 (neutralization) [58]: 4.81 µg/mL
IC50 [22]: 0.016 µg/mL

PGT-144 (antibody)
IC50 [1]: > 50 µg/mL
IC50 [2]: 1.58 µg/mL
IC50 [3]: > 50 µg/mL
IC50 [4]: > 50 µg/mL
IC50 [5]: 7.92 µg/mL
IC50 [6]: 3.84 µg/mL
IC50 (neutralization) [7]: > 50 µg/mL
IC50 (neutralization) [8]: > 50 µg/mL
IC50 [9]: 9.97 µg/mL
IC50 [10]: > 50 µg/mL
IC50 [11]: > 50 µg/mL
IC50 [12]: 0.562 µg/mL
IC50 [13]: > 50 µg/mL
IC50 (neutralization) [14]: > 50 µg/mL
IC50 [15]: > 50 µg/mL
IC50 [16]: > 50 µg/mL
IC50 [17]: > 50 µg/mL
IC50 (neutralization) [18]: > 50 µg/mL
IC50 (neutralization) [19]: > 50 µg/mL
IC50 (neutralization) [20]: > 50 µg/mL
IC50 [21]: > 50 µg/mL
IC50 [22]: > 50 µg/mL

PGT-145 (antibody)
IC50 [1]: 0.028 µg/mL
IC50 [2]: 0.028 µg/mL
IC50 [3]: > 50 µg/mL
IC50 [4]: > 50 µg/mL
IC50 [5]: 0.06 µg/mL
IC50 [6]: 0.286 µg/mL
IC50 (neutralization) [7]: 0.136 µg/mL
IC50 (neutralization) [8]: > 50 µg/mL
IC50 [9]: 0.205 µg/mL
IC50 [10]: > 50 µg/mL
IC50 [11]: 0.081 µg/mL
IC50 [12]: 0.144 µg/mL
IC50 [13]: 0.982 µg/mL
IC50 (neutralization) [14]: > 50 µg/mL
IC50 [15]: 0.046 µg/mL
IC50 [16]: 0.433 µg/mL
IC50 [17]: > 50 µg/mL
IC50 (neutralization) [18]: > 50 µg/mL
IC50 (neutralization) [19]: > 50 µg/mL
IC50 (neutralization) [20]: 1.6 µg/mL
IC50 [21]: 10.5 µg/mL
IC50 [22]: 0.041 µg/mL
